Patent publication US20220403048A1, “BINDING MOLECULES TO ARGINASE II [ARG2]” (Cancer Research Technology Limited, priority 2019, published 2022)

Assays:
[1] = target: T1, recombinant human trimeric ARG2 enzyme (Homo sapiens, UniProt P78540, E275H/R327K); assay: Direct binding HTRF assay, human trimeric ARG2; conditions: purified scFv, FIG. 1A
T1 construct: His10 (after a GGG linker) (C); made in house; host or cells: E. coli BL21 (DE3)
T1 sequence (P78540 with tags, fused parts or gaps E275H/R327K): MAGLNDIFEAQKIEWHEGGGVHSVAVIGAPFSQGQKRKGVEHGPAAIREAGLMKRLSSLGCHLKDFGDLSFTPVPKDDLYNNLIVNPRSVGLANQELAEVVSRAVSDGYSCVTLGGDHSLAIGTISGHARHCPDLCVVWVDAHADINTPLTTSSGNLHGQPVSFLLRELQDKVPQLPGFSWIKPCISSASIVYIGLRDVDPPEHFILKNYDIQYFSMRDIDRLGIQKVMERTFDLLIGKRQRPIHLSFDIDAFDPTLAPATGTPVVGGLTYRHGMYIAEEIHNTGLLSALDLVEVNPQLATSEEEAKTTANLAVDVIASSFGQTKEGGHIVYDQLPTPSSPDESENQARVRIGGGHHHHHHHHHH
Method: Unpurified scFv from periplasmic preparations were screened in a homogeneous time-resolved fluorescence (HTRF™, CisBio Bioassays, France) binding assay using a Pherastar plate reader (BMG Labtech, Germany). In this assay, binding of unpurified scFv to recombinant human trimeric ARG2 enzyme was assessed by measuring the fluorescence resonance energy transfer (FRET) between the c-myc tagged scFv and the biotinylated enzyme using streptavidin cryptate and anti-c-myc-XL665 detection reagents (CisBio International, France; cat: 610SAKLB and 61 MYCXLB respectively). […] Assay plates were incubated overnight at 4° C. prior to reading time resolved fluorescence on a Pherastar plate reader ([…]) using an excitation wavelength of 320 nm and measuring the emission at 620 nm and 665 nm (100 flashes).
Data were analysed by calculating % Delta F values for each sample. % Delta F was determined according to equation 1.
The scFv with unique protein sequences were expressed in E. coli and purified by affinity chromatography (essentially as described (Bannister et al., 2006)). The ARG2 binding profile of each purified scFv was determined by testing a dilution series of the purified scFv in the HTRF™ assay described in section 1.4, substituting the unpurified scFv periplasmic preparation with the purified scFv. […] Data were analysed by calculating the % Delta F values as described in section 1.4. […]

[2] = target: T2, monomeric ARG2 (Homo sapiens, UniProt P78540, E275Q); assay: Human monomeric ARG2 enzyme inhibition assay; format: biochemical; conditions: purified recombinant human IgG1, FIG. 5
T2 construct: human ARG2 (aa23-354); His10 (C); made in house; host or cells: E. coli
T2 sequence (P78540 23-354 E275Q): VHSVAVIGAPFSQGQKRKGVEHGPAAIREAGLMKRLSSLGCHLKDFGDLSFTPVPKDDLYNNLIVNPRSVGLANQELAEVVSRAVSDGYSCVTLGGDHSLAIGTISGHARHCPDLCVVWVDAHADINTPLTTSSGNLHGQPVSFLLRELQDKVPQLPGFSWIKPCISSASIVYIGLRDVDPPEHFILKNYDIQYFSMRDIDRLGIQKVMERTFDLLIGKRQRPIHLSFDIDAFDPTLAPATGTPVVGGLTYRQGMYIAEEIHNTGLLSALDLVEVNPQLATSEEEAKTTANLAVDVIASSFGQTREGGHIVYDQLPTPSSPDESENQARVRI
Method: ARG2 specific recombinant IgG1 were screened for their ability to inhibit enzymatic activity of monomeric ARG2. In this assay, the ability of ARG2 specific recombinant IgG1 to inhibit the enzymatic activity of monomeric ARG2 was determined by measuring the production of urea, the product of L-arginine turnover by monomeric ARG2.
IC50 values were determined by testing a dilution series of the ARG2 specific recombinant IgG1, prepared in TBS.
10 μl of ARG2 specific recombinant IgG1 (dilution series) were added to a Greiner Bio-One® 384 well assay plate (Greiner Bio-one, UK; cat: 781901). […]
Urea was detected by the simultaneous addition of equal volumes of O-Phthaldialdehyde (1.5 mM O-Phthaldialdehyde, 7% H2SO4, 0.03% Brij L23) and N-(1-Napthyl)ethylenediamine (1.66 mM N-(1-Napthyl)ethylenediamine, 81 mM Boric acid, 21% H2SO4, 0.03% Brij L23) followed by an 18 minute incubation at room temperature before the colorimetric product was quantified on the Pherastar by measuring absorbance at 505 nm.
ARG2 specific recombinant IgG1 were tested alongside N-Hydroxyl-L-Arginine (a small molecule competitive inhibitor of ARG2) as a positive control and NIP228 (irrelevant isotype control antibody) as a negative control. Data points were plotted and IC50 values determined using a four parameter fit in GraphPad Prism (FIG. 5).

B1: C0020065: anti-ARG2 antibody, alternate lead isolation clone, VH SEQ ID NO: 2, VL SEQ ID NO: 7 (antibody, listed as Homo sapiens, V domains shown)
VH: GVNLRESGGGVVQPGRSLRLSCAASGFTFSSYAMHWVRQAPGKGLEWVAVISYDGSNKYYVDSVKGRFTISRDNSKNTLYLQMNSLRAEDTAVYYCARDSSQLWFDYWGRGTLVTVSS
VL: QSVVTQPPSVSGAPGQRVTISCTGSSSNIGTGYDVHWYQQLPGTAPKLLIYGNSNRPSGVPDRFSGSKSGTSASLAITGLQAEDEADYYCQSYDSSLSGSVVFGGGTQLTVL
modifications: C0020065
- binding to biotinylated recombinant human trimeric ARG2 enzyme [1]: bound
- inhibition of the activity of human monomeric ARG2 [2]: inhibited
